The text below walks through data of patent publication US6767720 (VLAAMS INTERUNIVERSITAIR INSTITUUT VOOR BIOTECHNOLOGIE VZW, dated 2004).

The labels stand for the following.
T1: human αE-catenin (full-length; expressed from pJ6αECTN in HEK293T cells, also endogenous in HEK293T) (human, UniProt P35221 1-906)
T1 construct: also called PJ6αECTN(37-3433); pJ6αE-catenin
T1 sequence (looked up): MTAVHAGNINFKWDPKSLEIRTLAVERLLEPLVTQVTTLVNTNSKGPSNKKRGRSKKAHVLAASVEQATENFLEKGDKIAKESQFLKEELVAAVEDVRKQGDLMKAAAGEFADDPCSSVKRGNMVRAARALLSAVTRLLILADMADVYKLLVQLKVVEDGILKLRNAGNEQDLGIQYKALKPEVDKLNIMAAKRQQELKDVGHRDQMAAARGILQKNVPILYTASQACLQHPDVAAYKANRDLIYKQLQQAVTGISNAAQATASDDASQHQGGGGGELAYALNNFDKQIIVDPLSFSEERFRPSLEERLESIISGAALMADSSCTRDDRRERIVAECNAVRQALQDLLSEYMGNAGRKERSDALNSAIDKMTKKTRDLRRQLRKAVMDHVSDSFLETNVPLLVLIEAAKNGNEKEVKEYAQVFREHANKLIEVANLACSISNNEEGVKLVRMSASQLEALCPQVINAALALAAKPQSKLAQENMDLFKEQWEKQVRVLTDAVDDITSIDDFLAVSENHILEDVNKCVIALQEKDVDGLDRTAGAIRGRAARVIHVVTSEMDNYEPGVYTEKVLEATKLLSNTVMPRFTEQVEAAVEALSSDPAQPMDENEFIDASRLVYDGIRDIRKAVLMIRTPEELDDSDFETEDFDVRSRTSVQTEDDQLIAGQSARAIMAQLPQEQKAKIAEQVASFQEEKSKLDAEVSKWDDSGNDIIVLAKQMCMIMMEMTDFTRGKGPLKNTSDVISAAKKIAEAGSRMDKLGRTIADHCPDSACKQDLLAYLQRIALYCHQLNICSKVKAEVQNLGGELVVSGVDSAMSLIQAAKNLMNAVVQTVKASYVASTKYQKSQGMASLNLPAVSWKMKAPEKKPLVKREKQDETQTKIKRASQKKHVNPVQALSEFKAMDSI

B1: zinc fingers 1 to 3 of ANC-2H01 fused to the GAL4-AD (plasmid pACT2ANC2H01ZF1-3) (other, not shown: large carriers)
chain: LYKCELCEFNSKYFSDLKQHMILKHKRTDSNVCRVCKESFSTNMLLIEHAKLHEEDPYICKYCDYKTVIFENLSQHIADTHFSDHL
B2: αN-catenin residues 535-787 fused to the GAL4-DBD (plasmid pGBT9ANCTN(PstI 1618-2375)) (other, UniProt P04386 1-147, looked up)
chain: MKLLSSIEQACDICRLKKLKCSKEKPKCAKCLKNNWECRYSPKTKRSPLTRAHLTEVESRLERLEQLFLLIFPREDLDMILKMDSLQDIKALLTGLFVQDNVNKDAVTDRLASVETDMPLTLRQHRISATSSSEESSNKGQRQLTVSTLDRTAGAIRGRAARVIHIINAEMENYEAGVYTEKVLEATKLLSETVMPRFAEQVEVAIEALSANVPQPFEENEFIDASRLVYDGVRDIRKAVLMIRTPEELEDDSDFEQEDYDVRSRTSVQTEDDQLIAGQSARAIMAQLPQEEKAKIAEQVEIFHQEKSKLDAEVAKWDDSGNDIIVLAKQMCMIMMEMTDFTRGKGPLKNTSDVINAAKKIAEAGSRMDKLARAVADQCPDSACKQDLLAYLQRIALYCH
B3: αN-catenin residues 4-193 fused to the GAL4-DBD (plasmid pGBT9ANCTN(EcoRI-BamHI)) (other, UniProt P04386 1-147, looked up)
chain: MKLLSSIEQACDICRLKKLKCSKEKPKCAKCLKNNWECRYSPKTKRSPLTRAHLTEVESRLERLEQLFLLIFPREDLDMILKMDSLQDIKALLTGLFVQDNVNKDAVTDRLASVETDMPLTLRQHRISATSSSEESSNKGQRQLTVSATSPIILKWDPKSLEIRTLTVERLLEPLVTQVTTLVNTSNKGPSGKKKGRSKKAHVLAASVEQATQNFLEKGEQIAKESQDLKEELVAAVEDVRKQGETMRIASSEFADDPCSSVKRGTMVRAARALLSAVTRLLILADMADVMRLLSHLKIVEEALEAVKNATNEQDLANRFKEFGKEMVKLNYVAARR
B4: E-tagged full-length ANC-2H01 protein (expression plasmid pEFBOSANC-2H01E), expressed in HEK293T cells (other)
chain: MNEYPKKRKRKTLHPSRYSDSSGISRIADGFNGIFSDHCYSVCSMRQPDLKYFDNKDDDSDTETSNDLPKFADGIKARNRNQNYLVPSPVLRILDHTAFSTEKSADIVICDEECDSPESVNQQTQEESPIEVHTAEDVPIAVEVHAISEDYDIETENNSSESLQDQTDEEPPAKLCKILDKSQALNVTAQQKWPLLRANSSGLYKCELCEFNSKYFSDLKQHMILKHKRTDSNVCRVCKESFSTNMLLIEHAKLHEEDPYICKYCDYKTVIFENLSQHIADTHFSDHLYWCEQCDVQFSSSSELYLHFQEHSCDEQYLCQFCEHETNDPEDLHSHVVNEHACKLIELSDKYNNGEHGQYSLLSKITFDKCKNFFVCQVCGFRSRLHTNVNRHVAIEHTKIFPHVCDDCGKGFSSMLEYCKHLNSHLSEGIYLCQYCEYSTGQIEDLKIHLDFKHSADLPHKCSDCLMRFGNERELISHLPVHETT
notes: also called pEFBOS-EANC-2H01; E-tagged ANC-2H01; not shown: E-tag derived from plasmid pCANTAB5E (Pharmacia), at the amino-terminal side
B5: about full-length ANC-2H01 fused to the GAL4-AD (plasmid pGAD424ANC-2H01-FL) (other, not shown: large carriers)
chain: B4 chain
B6: zinc fingers 4 to 5 of ANC-2H01 fused to the GAL4-AD (plasmid pACT2ANC2H01-ZF4-5) (other, not shown: large carriers)
chain: LYWCEQCDVQFSSSSELYLHFQEHSCDEQYLCQFCEHETNDPEDLHSHVVNEHACKLIELSDK
notes: also called pACT2ANC2H01Zn4-5
B7: ANC-2H01/500 (amino-terminal part of ANC-2H01 lacking any functional zinc finger, fused to the GAL4-AD in pGAD10) (other, not shown: large carriers)
chain: IADGFNGIFSDHCYSVCSMRQPDLKYFDNKDDDSDTETSNDLPKFADGIKARNRNQNYLVPSPVLRILDHTAFSTEKSADIVICDEECDSPESVNQQTQEESPIEVHTAEDVPIAVEVHAISEDYDIETENNSSESLQDQTDEEPPAKLCKILDKSQALNVTAQQKW
notes: whole entry named, only the stated part stood in the assay
B8: ANC-2H01 initial two-hybrid clone (part of ANC-2H01 fused to the GAL4-AD, plasmid pGAD10ANC2H01) (other, not shown: large carriers)
chain: IADGFNGIFSDHCYSVCSMRQPDLKYFDNKDDDSDTETSNDLPKFADGIKARNRNQNYLVPSPVLRILDHTAFSTEKSADIVICDEECDSPESVNQQTQEESPIEVHTAEDVPIAVEVHAISEDYDIETENNSSESLQDQTDEEPPAKLCKILDKSQALNVTAQQKWPLLRANSSGLYKCELCEFNSKYFSDLKQHMILKHKRTDSNVCRVCKESFSTNMLLIEHAKLHEEDPYICKYCDYKTVIFENLSQHIADTHFSDHLYWCEQCDVQFSSSSELYLHFQEHSCDEQYLCQFCEHETNDPEDLHSHVVNEHACKLIELSDKYNNGEHGQYSLLSKITFDKCKNFFVCQVCGFRSRLHTNVNRHVAIEHTKIFPHVCDDCGKGFSSMLEYCKHLNSHLSEGIYLCQYCEYSTGQIEDLKIHLDFKHSADLPHKCSDCLMRFGNERELISHLPVHETT
notes: 27-485 is derived from 459 of 485 residues; also called ANC-2H01 clone; initial ANC-2H01 two-hybrid clone
B9: ANC-2H01/600 (amino-terminal part of the initial ANC-2H01 plus half of the first zinc finger, fused to the GAL4-AD in pGAD10) (other, not shown: large carriers)
chain: IADGFNGIFSDHCYSVCSMRQPDLKYFDNKDDDSDTETSNDLPKFADGIKARNRNQNYLVPSPVLRILDHTAFSTEKSADIVICDEECDSPESVNQQTQEESPIEVHTAEDVPIAVEVHAISEDYDIETENNSSESLQDQTDEEPPAKLCKILDKSQALNVTAQQKWPLLRANSSGLYKCELCEFNSKY
notes: as for B7
B10: ANC-2H01/BamHI (amino-terminal part of the ANC-2H01 clone plus two of the nine zinc fingers, fused to the GAL4-AD in pGAD10) (other, not shown: large carriers)
chain: IADGFNGIFSDHCYSVCSMRQPDLKYFDNKDDDSDTETSNDLPKFADGIKARNRNQNYLVPSPVLRILDHTAFSTEKSADIVICDEECDSPESVNQQTQEESPIEVHTAEDVPIAVEVHAISEDYDIETENNSSESLQDQTDEEPPAKLCKILDKSQALNVTAQQKWPLLRANSSGLYKCELCEFNSKYFSDLKQHMILKHKRTDSNVCRVCKESFSTNMLLIEHAKLHEEDP
notes: 700-bp BamHI fragment of the initial clone; only the stated part stood in the assay; also called pGAD10ANC-2H01/BamHI
B11: zinc fingers 1 to 5 of ANC-2H01 fused to the GAL4-AD (plasmid pACT2ANC2H01ZF1-5) (other, not shown: large carriers)
chain: LYKCELCEFNSKYFSDLKQHMILKHKRTDSNVCRVCKESFSTNMLLIEHAKLHEEDPYICKYCDYKTVIFENLSQHIADTHFSDHLYWCEQCDVQFSSSSELYLHFQEHSCDEQYLCQFCEHETNDPEDLHSHVVNEHACKLIELSDK

In assay [1] the target is T2, human αN-catenin fused to the GAL4-DBD in pGBT9 (plasmid pGBT9ANCTN) (human, UniProt P04386 1-147; P26232 4-905, limits assumed).
T2 construct: Construction of pGBT9ANCTN is not described; also called pGBT9αNCTN; pGBT9-αNCTN
Briefly: yeast two-hybrid, strain Y190 (FIG. 16).

Assay [2] has as its target B8. Briefly: yeast two-hybrid (FIG. 4).
In assay [3] the target is T1, human αE-catenin (full-length; …). Briefly: co-immunoprecipitation from cotransfected HEK293T cells, Western blot. Background: In western blotting, separated proteins are transferred to a membrane and probed.
Assay [4] concerns the target T3, human αE-catenin fused to the GAL4-DBD (plasmid pGBT9αECTN) (human, UniProt P04386 1-147; P35221 1-906, limits assumed).
T3 construct: also called full-length αE-catenin
Briefly: yeast two-hybrid, strain Y190, HIS3 and LacZ reporters (FIG. 11).

Assay [5] deals with T3, human αE-catenin fused to the GAL4-DBD …. As to the kind of experiment: yeast two-hybrid, strain HF7c (FIG. 4).
Assay [6] deals with B3. As to the kind of experiment: yeast two-hybrid (FIG. 4).
Assay [7] deals with T4, αN-catenin residues 543-906 fused to the GAL4-DBD (plasmid pGBT9ANCTN-(XhoI-SalI)) (human, UniProt P04386 1-147; P26232 543-906).
T4 construct: the UniProt canonical isoform differs near the C-terminus
Briefly: yeast two-hybrid (FIG. 4).

The target in assay [8] is T2, human αN-catenin fused to the GAL4-DBD …. Briefly: yeast two-hybrid (FIG. 4).
Assay [9] addresses αN-catenin residues 4-535 fused to the GAL4-DBD (plasmid pGBT9ANCTN(EcoRI-PstI)) (human, UniProt P04386 1-147; P26232 4-535). As to the kind of experiment: yeast two-hybrid (FIG. 4).
The target in assay [10] is B2. Briefly: yeast two-hybrid (FIG. 4).

For the molecule B1, in [1], the binding result is given as “no binding”.

As to B2, the binding result in [2] is listed as “no binding”.

As for B3, the binding result in assay [2] is given as “no binding”.

Turning to B4, the binding result in assay [3] is “no binding”.

As to B5, the binding result in [4] is on record as “no binding”.

In the case of B6, in assay [1], the binding result is on record as “no binding”.

Take B7: the binding result in assay [5], in assay [6], in assay [7], in assay [8], in [9] and in [10] was “no binding” throughout.

B8: the binding result in assay [5] and in [7] was “no binding” each time.

As for B9, the binding result in [5], in [6], in [7], in [8], in assay [9] and in assay [10] was “no binding” throughout.

For the molecule B10, the binding result in assay [5], in [6], in assay [7], in assay [8], in assay [9] and in assay [10] was “no binding” in each case.

For B11, the binding result in assay [1] is “no binding”.
